How the values were obtained:
Hck = Hck (UniProt P08631); assay: phosphorylation enrichment, bacterial display (enrichment ratio); higher = better substrate or ligand; peptides without Tyr show the background
FGFR3 = FGFR3 (UniProt P22607); assay: as above
c-Src = assay: as above
c-Abl (mouse) = assay: as above
EPHB2 = EPHB2 (UniProt P29323); assay: as above
EPHB1 = EPHB1 (UniProt P54762); assay: as above
Fes = Fes (UniProt P07332); assay: as above
Fer (mouse) = assay: as above
MERTK = MERTK (UniProt Q12866); assay: as above
Fyn = Fyn (UniProt P06241); assay: as above
Fyn, sequence (P06241 whole entry, looked up): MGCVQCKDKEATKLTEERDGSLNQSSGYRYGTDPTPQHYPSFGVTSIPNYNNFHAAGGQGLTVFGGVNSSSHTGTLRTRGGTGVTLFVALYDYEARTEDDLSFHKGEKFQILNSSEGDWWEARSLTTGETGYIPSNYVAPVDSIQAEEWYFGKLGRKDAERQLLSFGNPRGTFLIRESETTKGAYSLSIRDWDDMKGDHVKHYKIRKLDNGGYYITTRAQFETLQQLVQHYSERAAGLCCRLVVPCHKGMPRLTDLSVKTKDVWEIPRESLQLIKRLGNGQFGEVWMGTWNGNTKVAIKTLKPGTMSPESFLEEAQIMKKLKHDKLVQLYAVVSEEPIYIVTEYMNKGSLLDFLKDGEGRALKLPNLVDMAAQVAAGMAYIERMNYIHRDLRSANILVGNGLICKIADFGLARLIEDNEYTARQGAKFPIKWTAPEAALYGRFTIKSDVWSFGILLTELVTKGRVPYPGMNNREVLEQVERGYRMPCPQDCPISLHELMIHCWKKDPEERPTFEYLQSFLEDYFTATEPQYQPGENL

FGFR1 = FGFR1 (UniProt P11362); assay: as above
FGFR1, sequence (P11362 whole entry, looked up): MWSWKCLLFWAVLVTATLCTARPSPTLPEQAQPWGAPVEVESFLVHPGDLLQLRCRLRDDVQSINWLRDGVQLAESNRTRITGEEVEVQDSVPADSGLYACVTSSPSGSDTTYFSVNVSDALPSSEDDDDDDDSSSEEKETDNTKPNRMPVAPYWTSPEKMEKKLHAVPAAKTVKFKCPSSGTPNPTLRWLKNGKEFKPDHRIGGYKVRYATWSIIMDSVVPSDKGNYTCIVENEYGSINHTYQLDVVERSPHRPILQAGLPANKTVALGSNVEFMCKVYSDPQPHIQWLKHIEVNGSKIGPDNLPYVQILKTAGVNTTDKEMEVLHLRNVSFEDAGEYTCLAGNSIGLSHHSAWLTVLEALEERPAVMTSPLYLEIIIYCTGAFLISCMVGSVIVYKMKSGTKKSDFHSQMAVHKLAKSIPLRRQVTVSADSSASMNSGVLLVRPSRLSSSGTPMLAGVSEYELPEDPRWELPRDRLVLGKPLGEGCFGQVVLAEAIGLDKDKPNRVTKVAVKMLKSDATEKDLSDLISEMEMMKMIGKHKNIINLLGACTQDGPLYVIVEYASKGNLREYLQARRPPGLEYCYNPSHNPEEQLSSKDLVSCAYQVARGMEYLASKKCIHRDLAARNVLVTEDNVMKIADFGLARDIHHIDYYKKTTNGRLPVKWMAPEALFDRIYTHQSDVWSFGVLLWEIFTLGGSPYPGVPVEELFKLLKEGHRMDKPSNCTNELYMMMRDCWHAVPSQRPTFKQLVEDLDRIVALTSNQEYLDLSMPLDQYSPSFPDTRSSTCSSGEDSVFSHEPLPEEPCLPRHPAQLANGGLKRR

Jak2 = Jak2 (UniProt O60674); assay: as above
Jak2, sequence (O60674 whole entry, looked up): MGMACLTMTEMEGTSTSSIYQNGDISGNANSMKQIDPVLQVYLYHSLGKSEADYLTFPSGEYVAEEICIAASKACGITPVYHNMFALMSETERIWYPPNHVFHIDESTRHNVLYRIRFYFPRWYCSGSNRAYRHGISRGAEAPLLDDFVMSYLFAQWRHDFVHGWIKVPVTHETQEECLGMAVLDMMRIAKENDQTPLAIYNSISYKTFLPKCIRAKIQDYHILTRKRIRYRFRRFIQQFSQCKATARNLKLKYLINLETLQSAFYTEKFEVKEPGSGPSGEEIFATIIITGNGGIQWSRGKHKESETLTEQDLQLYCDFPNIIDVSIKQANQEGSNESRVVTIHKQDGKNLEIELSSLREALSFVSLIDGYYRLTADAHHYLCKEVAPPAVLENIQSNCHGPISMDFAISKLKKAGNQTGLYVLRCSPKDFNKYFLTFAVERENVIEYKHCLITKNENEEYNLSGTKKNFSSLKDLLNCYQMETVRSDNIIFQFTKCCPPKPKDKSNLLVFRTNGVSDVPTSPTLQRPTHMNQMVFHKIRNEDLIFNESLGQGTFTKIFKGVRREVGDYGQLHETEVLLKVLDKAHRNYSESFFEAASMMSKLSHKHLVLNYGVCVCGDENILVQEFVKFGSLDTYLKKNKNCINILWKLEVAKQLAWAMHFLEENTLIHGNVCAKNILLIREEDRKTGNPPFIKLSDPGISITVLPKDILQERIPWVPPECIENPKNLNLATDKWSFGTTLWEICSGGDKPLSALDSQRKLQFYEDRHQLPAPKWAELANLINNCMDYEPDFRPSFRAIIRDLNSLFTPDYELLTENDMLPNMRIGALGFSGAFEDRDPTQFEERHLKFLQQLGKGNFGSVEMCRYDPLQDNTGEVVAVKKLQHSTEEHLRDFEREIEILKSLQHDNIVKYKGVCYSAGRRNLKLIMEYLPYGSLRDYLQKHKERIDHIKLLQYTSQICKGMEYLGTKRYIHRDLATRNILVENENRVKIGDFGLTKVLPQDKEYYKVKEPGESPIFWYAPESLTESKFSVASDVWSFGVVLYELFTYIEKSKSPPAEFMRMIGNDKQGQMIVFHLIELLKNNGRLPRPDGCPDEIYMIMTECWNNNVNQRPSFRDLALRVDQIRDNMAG

AncSZ = assay: as above
c-Src SH2 = assay: SH2 binding enrichment of the phosphorylated peptide, bacterial display (enrichment ratio); higher = better substrate or ligand; peptides without Tyr show the background
Grb2 SH2 = Grb2 SH2 (UniProt P62993); assay: as above
SHP2-C SH2 = assay: as above
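For SH2 binding enrichment of the phosphorylated peptide, bacterial display in this document: peptide library displayed on the E. coli surface as eCPX fusions, selected cells deep-sequenced, score is each peptide's frequency after selection divided by its frequency in the input.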
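For phosphorylation enrichment, bacterial display in this document: 11-residue human phosphosite peptides and single-mutation variants displayed on the E. coli surface, counted by deep sequencing, each peptide's frequency after selection divided by its frequency in the unselected input library; frequency after pTyr selection over input frequency; kinase dosed for 20-30% of maximal phosphorylation in three min.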

EPHB1, sequence (P54762 whole entry, looked up): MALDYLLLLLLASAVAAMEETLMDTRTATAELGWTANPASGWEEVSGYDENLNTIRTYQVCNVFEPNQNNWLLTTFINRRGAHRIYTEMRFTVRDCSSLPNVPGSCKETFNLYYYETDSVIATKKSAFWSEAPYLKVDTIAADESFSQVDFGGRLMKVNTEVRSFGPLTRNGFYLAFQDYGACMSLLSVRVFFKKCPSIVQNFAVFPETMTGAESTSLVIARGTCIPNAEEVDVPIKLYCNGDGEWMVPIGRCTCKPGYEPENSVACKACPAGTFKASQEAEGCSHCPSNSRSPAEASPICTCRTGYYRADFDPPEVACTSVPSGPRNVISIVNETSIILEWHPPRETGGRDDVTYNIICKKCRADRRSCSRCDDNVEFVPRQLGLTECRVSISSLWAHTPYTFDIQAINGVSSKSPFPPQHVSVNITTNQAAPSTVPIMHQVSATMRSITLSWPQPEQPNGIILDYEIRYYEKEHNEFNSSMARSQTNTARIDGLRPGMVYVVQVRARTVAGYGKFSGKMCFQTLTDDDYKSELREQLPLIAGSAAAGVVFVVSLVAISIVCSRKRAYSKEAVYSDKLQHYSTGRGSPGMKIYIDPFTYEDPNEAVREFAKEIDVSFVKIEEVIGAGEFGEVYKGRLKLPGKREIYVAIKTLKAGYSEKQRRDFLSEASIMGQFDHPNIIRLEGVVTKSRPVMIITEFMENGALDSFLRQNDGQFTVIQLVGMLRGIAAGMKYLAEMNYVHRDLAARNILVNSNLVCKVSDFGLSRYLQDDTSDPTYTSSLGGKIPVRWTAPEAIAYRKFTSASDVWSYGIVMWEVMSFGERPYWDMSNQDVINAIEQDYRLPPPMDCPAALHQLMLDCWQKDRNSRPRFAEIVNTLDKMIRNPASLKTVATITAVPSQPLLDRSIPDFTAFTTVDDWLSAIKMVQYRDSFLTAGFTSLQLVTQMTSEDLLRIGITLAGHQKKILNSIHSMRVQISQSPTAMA
FGFR3, sequence (P22607 whole entry, looked up): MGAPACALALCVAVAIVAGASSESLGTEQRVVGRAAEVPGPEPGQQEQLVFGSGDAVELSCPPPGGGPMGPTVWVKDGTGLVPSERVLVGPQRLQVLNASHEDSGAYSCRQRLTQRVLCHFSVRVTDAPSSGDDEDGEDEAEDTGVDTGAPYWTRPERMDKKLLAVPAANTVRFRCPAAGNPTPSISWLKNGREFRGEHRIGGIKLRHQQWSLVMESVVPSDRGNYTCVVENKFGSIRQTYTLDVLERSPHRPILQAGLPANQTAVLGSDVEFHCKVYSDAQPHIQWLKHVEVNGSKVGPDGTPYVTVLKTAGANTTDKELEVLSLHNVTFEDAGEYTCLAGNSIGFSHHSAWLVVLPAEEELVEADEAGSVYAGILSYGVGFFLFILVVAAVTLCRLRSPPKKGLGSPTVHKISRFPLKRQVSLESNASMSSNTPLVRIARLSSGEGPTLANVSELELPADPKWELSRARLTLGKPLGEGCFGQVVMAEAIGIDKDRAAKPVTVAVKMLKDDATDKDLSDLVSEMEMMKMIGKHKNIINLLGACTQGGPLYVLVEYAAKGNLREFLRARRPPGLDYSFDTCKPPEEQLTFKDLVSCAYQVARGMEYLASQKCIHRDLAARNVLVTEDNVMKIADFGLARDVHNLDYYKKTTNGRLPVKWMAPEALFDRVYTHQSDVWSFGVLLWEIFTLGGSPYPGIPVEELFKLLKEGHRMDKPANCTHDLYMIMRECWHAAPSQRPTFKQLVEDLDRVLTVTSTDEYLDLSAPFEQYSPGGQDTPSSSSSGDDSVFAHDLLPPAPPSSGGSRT
Fes, sequence (P07332 whole entry, looked up): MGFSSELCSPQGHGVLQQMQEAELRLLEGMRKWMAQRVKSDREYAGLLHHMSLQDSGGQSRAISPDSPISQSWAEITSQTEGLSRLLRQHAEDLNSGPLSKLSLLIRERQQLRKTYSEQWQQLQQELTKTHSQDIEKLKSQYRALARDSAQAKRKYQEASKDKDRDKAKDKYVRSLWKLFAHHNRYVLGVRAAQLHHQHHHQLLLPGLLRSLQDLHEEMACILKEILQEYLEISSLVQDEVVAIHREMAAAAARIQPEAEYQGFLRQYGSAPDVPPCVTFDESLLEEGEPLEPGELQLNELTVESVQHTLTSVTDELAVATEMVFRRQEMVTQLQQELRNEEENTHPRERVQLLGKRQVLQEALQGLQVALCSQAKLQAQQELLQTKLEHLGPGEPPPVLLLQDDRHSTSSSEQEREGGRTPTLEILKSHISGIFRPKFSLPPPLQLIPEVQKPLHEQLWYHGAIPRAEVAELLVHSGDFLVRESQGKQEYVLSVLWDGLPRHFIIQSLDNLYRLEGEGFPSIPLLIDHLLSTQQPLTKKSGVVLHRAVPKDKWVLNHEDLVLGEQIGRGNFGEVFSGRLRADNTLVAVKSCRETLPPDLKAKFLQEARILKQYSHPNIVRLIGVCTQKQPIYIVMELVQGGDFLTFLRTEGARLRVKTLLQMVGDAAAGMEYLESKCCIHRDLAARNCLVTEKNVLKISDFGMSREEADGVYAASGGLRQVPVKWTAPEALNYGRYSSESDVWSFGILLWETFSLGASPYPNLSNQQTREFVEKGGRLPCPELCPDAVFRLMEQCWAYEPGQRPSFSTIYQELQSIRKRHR

Row | Sequence | phosphorylation enrichment (Hck) | phosphorylation enrichment (FGFR3) | phosphorylation enrichment (c-Src) | phosphorylation enrichment (c-Abl (mouse)) | phosphorylation enrichment (EPHB2) | phosphorylation enrichment (EPHB1) | phosphorylation enrichment (Fes) | phosphorylation enrichment (Fer (mouse)) | phosphorylation enrichment (MERTK) | phosphorylation enrichment (Fyn) | phosphorylation enrichment (FGFR1) | phosphorylation enrichment (Jak2) | phosphorylation enrichment (AncSZ) | SH2 binding enrichment (c-Src SH2) | SH2 binding enrichment (Grb2 SH2) | SH2 binding enrichment (SHP2-C SH2)
1 | SQGRQYQELPR [KCNH2_Y1009_R1005Q] | 0.668 | 0.477 | 0.423 | 0.473 | 0.402 | 0.354 | 0.568 | 0.402 | 0.412 | 0.45 | 0.483 | 0.517 | 0.666 | 1.41 | 0.82 | 0.545
2 | SRDDYYETIAM [NPY1R_Y347_D346Y] | 1.18 | 6.01 | 0.656 | 0.634 | 1.53 | 2.19 | 1.01 | 4.75 | 0.467 | 0.798 | 8.35 | 0.808 | 1.33 | 3.29 | 0.589 | 0.431
3 | SRFQFYFQQKG [CHKB_Y381] | 0.551 | 1.02 | 0.379 | 0.99 | 0.612 | 0.938 | 1.56 | 0.597 | 0.369 | 0.48 | 0.579 | 1.47 | 1.63 | 0.473 | 0.692 | 0.728
4 | SSAETYSRMRL [NBEAL2_Y1835] | 0.709 | 0.44 | 0.471 | 0.509 | 0.436 | 0.443 | 0.577 | 0.54 | 0.412 | 0.431 | 0.393 | 0.501 | 0.513 | 0.691 | 0.719 | 0.724
5 | SSNPEYLSASD [INSR_Y999] | 0.462 | 0.695 | 0.458 | 0.719 | 0.594 | 0.514 | 1 | 0.491 | 0.476 | 0.531 | 0.498 | 0.961 | 1.12 | 0.557 | 0.977 | 0.642
6 | SSPQLYLVPFL [TAF4_Y652_P651L] | 0.907 | 2.11 | 0.721 | 13.2 | 3.08 | 4.26 | 0.974 | 1.23 | 7.97 | 0.7 | 2.18 | 7 | 1.3 | 0.721 | 1.35 | 1.21
7 | SSQTVYQRVEG [TFR2_Y23] | 0.77 | 0.483 | 0.585 | 0.458 | 0.447 | 0.631 | 0.708 | 0.517 | 0.499 | 0.6 | 0.526 | 0.596 | 0.962 | 2.23 | 0.853 | 2.4
8 | SSREGYVSHHN [FAM83B_Y433] | 0.354 | 0.464 | 0.399 | 0.445 | 0.321 | 0.345 | 0.502 | 0.326 | 0.453 | 0.457 | 0.443 | 0.48 | 0.548 | 0.449 | 0.76 | 0.659
9 | SSTAMYSAAGR [PSMB1_Y8_P11A] | 0.755 | 0.342 | 0.424 | 0.444 | 0.364 | 0.35 | 0.455 | 0.442 | 0.511 | 0.403 | 0.512 | 0.458 | 0.451 | 0.774 | 0.897 | 0.609
10 | STKPQYQPGEN [SRC_Y530_E527K] | 0.361 | 0.412 | 0.396 | 0.519 | 0.36 | 0.363 | 0.579 | 0.311 | 0.395 | 0.363 | 0.389 | 0.63 | 0.575 | 0.417 | 0.833 | 1.09
11 | STSFDYCRVPM [BST2_Y8_YF] | 1.57 | 3.97 | 0.957 | 0.932 | 5.96 | 9.03 | 1.32 | 0.827 | 0.903 | 0.828 | 5.41 | 2.03 | 2.98 | 0.558 | 0.675 | 0.571
12 | STTSDYQWDFS [MTDH_Y364_V368F] | 0.524 | 1.27 | 0.58 | 0.736 | 0.776 | 0.905 | 1.1 | 0.598 | 0.409 | 0.473 | 1.24 | 1.14 | 1.36 | 0.573 | 0.821 | 0.637
13 | SVGGLYRDMGA [CBX8_Y321_G317V] | 0.481 | 0.561 | 0.385 | 0.555 | 0.43 | 0.567 | 0.791 | 0.446 | 0.483 | 0.408 | 0.541 | 0.734 | 0.699 | 0.393 | 0.72 | 0.53
14 | SVNIRYLLFPS [SERAC1_Y548] | 0.558 | 0.929 | 0.463 | 0.817 | 0.634 | 0.714 | 1.36 | 0.469 | 0.46 | 0.47 | 0.574 | 1.25 | 1.08 | 1.38 | 1.72 | 1.67
15 | SVQVDYMKTIL [GLYATL2_Y127] | 0.517 | 0.643 | 0.446 | 0.642 | 0.611 | 0.527 | 0.776 | 0.644 | 0.428 | 0.407 | 0.505 | 0.791 | 0.908 | 0.517 | 0.772 | 0.656
16 | SVSVNYGDQVQ [GRAP_Y101] | 0.416 | 0.561 | 0.429 | 0.804 | 0.483 | 0.443 | 0.902 | 0.442 | 0.545 | 0.409 | 0.481 | 0.794 | 0.748 | 0.487 | 0.941 | 0.651
17 | SVTCAYSPALN [TP53_Y126_T125A] | 0.608 | 0.757 | 0.583 | 0.79 | 0.577 | 0.726 | 1.2 | 0.64 | 0.525 | 0.616 | 0.557 | 0.98 | 1.26 | 0.457 | 0.802 | 0.66

Row | Sequence | phosphorylation enrichment (Hck) | phosphorylation enrichment (FGFR3) | phosphorylation enrichment (c-Src) | phosphorylation enrichment (c-Abl (mouse)) | phosphorylation enrichment (EPHB2) | phosphorylation enrichment (EPHB1) | phosphorylation enrichment (Fes) | phosphorylation enrichment (Fer (mouse)) | phosphorylation enrichment (MERTK) | phosphorylation enrichment (Fyn) | phosphorylation enrichment (FGFR1) | phosphorylation enrichment (Jak2) | phosphorylation enrichment (AncSZ) | SH2 binding enrichment (c-Src SH2) | SH2 binding enrichment (Grb2 SH2) | SH2 binding enrichment (SHP2-C SH2)
18 | SVTCTYSPALD [TP53_Y126_N131D] | 0.656 | 1.01 | 0.745 | 1.24 | 0.816 | 0.882 | 1.76 | 0.821 | 0.466 | 0.641 | 0.616 | 1.51 | 1.74 | 0.599 | 1.01 | 0.532
19 | SVTCTYSPAPN [TP53_Y126_L130P] | 0.501 | 0.83 | 0.509 | 0.776 | 0.581 | 0.517 | 1.14 | 0.503 | 0.362 | 0.435 | 0.495 | 0.999 | 1.12 | 0.425 | 0.635 | 0.554
20 | SVTCTYTPALN [TP53_Y126_S127T] | 0.511 | 0.811 | 0.455 | 0.88 | 0.639 | 0.633 | 1.29 | 0.478 | 0.404 | 0.49 | 0.5 | 1.24 | 1.43 | 0.422 | 0.698 | 0.574
21 | SVTSTYSPALN [TP53_Y126_C124S] | 0.459 | 0.398 | 0.488 | 0.586 | 0.426 | 0.437 | 0.712 | 0.436 | 0.379 | 0.432 | 0.511 | 0.465 | 0.641 | 0.491 | 0.672 | 0.787
22 | SVVVPYEPPDV [TP53_Y220_E224D] | 0.447 | 0.612 | 0.415 | 0.603 | 0.528 | 0.554 | 0.932 | 0.456 | 0.337 | 0.429 | 0.524 | 0.752 | 0.984 | 0.735 | 0.89 | 0.73
23 | SVVVPYEPPED [TP53_Y220_V225D] | 0.544 | 0.759 | 0.491 | 0.772 | 0.641 | 0.607 | 1.4 | 0.549 | 0.441 | 0.479 | 0.545 | 1.15 | 1.31 | 0.769 | 0.874 | 0.778
24 | SVVVPYEPPEF [TP53_Y220_V225F] | 0.461 | 0.598 | 0.509 | 0.743 | 0.524 | 0.558 | 1.05 | 0.449 | 0.374 | 0.427 | 0.49 | 0.993 | 1.01 | 0.987 | 0.88 | 0.658
25 | SVVVPYEPPEL [TP53_Y220_V225L] | 0.503 | 0.666 | 0.437 | 0.54 | 0.524 | 0.489 | 0.869 | 0.491 | 0.424 | 0.494 | 0.459 | 0.811 | 0.905 | 0.683 | 0.741 | 0.717
26 | SVVVPYESPEV [TP53_Y220_P222S] | 0.566 | 0.647 | 0.509 | 0.73 | 0.609 | 0.57 | 1.13 | 0.488 | 0.463 | 0.578 | 0.561 | 0.867 | 1.36 | 1.66 | 0.972 | 0.689
27 | SVVVTYEPPEV [TP53_Y220_P219T] | 0.697 | 0.708 | 0.623 | 0.961 | 1.61 | 1.06 | 1.32 | 0.752 | 0.779 | 0.516 | 0.493 | 0.969 | 1.57 | 0.729 | 0.722 | 0.761
28 | SYCYRYRCAPR [SUMF1_Y344_A348P] | 0.43 | 0.716 | 0.488 | 0.493 | 0.418 | 0.441 | 0.572 | 0.528 | 0.458 | 0.436 | 0.511 | 0.459 | 0.644 | 0.434 | 0.625 | 0.63
29 | TCFDKYTGSTF [FN1_Y101_N104S_YF] | 0.51 | 0.699 | 0.529 | 0.537 | 0.533 | 0.494 | 1.12 | 0.469 | 0.448 | 0.408 | 0.443 | 0.646 | 0.739 | 0.82 | 1.29 | 0.956
30 | TDDMRYPMKSE [TGDS_Y302_N298D] | 0.42 | 0.621 | 0.455 | 0.651 | 0.527 | 0.378 | 0.863 | 0.518 | 0.488 | 0.43 | 0.529 | 0.694 | 0.77 | 0.439 | 0.827 | 0.626
31 | TDHLRYFDSNK [ARAP1_Y359] | 0.451 | 0.573 | 0.41 | 1.14 | 0.442 | 0.611 | 0.794 | 0.456 | 0.466 | 0.428 | 0.414 | 0.665 | 1.04 | 0.507 | 0.968 | 0.714
32 | TDLAYYLVREG [ASL_Y376_K380E] | 0.955 | 7.06 | 1.67 | 0.579 | 0.706 | 0.578 | 0.905 | 0.466 | 1.34 | 0.734 | 9.61 | 3.04 | 1.54 | 1.51 | 0.751 | 2.07
33 | TEALFYTDDPA [ADPRS_Y75_T79P_YF] | 0.76 | 1.3 | 0.797 | 1.25 | 0.894 | 1.05 | 1.82 | 0.863 | 0.699 | 0.645 | 0.734 | 1.65 | 1.62 | 0.626 | 0.636 | 0.397

Source: the supplement of paper PMC10065799, “High-throughput profiling of sequence recognition by tyrosine kinases and SH2 domains using bacterial peptide display” (eLife, 2023)
